We go through twelve molecules from patent publication US20060193821, “Aptamers to the human IL-12 cytokine family and their use as autoimmune disease therapeutics” (published 2006).

The target in series [1] is T1, IL-23 (human, p19/p40 heterodimer) (Homo sapiens, UniProt Q9NPF7;P29460 SEQ:20-189,SEQ:23-328). Briefly: filter; direct binding without tRNA. As to conditions: tags: R&D Systems, carrier free; label: 5'-32P. The method, then:
(§1) These molecules were gel purified and assayed for IL-23 binding using the dot blot assay as described above and compared to each other and to the parent molecule, ARC979. An 8 point IL-23 titration (0 nM to 300 nM, 3 fold serial dilutions) was used in the binding assay.

The target of series [2] is T1, IL-23 (human, p19/p40 heterodimer). Put plainly: filter; direct binding without tRNA; competition Kd 5 nM. As to conditions: tags: R&D Systems, carrier free; label: 5'-32P. As for the experimental part: as §1
Series [3] has the same target. Briefly: SPR; Biacore, IL-23 immobilized on CM3; HBS-P, 25 C. As to conditions: tags: R&D Systems, carrier free. As for the experimental part: All biosensor binding measurements were performed at 25° C. using a BIACORE 2000 equipped with a research-grade CM3 biosensor chip (BIACORE Inc. Piscataway, N.J.). Purified recombinant human IL-23 (R&D Systems, Minnapolis, Minn.) was immobilized to the biosensor surface using amino-coupling chemistry. To achieve this, the surfaces of two flow cells were first activated for 7 minutes with a 1:1 mixture of 0.1 M NHS (Nhydroxysuccinimide) and 0.4 M EDC (3-(N,Ndimethylamine) propyl-N-ethylcarbodiimide) at a flow rate of 5 μl/min. After surface activation, one flow cell was injected with 50 μg/ml of IL-23 at rate of 10 μl/minute for 15 minutes to allow for establishment of covalent bonds to the activated surface. Next, 1 M ethanolamine hydrochloride pH 8.5 was injected for 7 min at rate of 5 μl/min to inactivate residual esters. As a negative control, a blank flow cell was prepared by injecting 1 M ethanolamine hydrochloride pH 8.5 continuously for 7 minutes to inactivate residual esters, without protein injection.
For IL-23 binding, aptamers were serially diluted into HBS-P buffer (10 mM HEPES pH7.4, 150 mM NaCl, 0.005% Surfactant 20). […] Rate constant and dissociation constant were calculated using BIAevaluation software.
For orientation: In SPR one partner is held on a chip, and binding of the other changes the refractive index at the surface.

For series [4] the target is unchanged. Put plainly: filter; -tRNA; competition 6 nM. As to conditions: tags: R&D Systems, carrier free. As for the experimental part: as §1
Series [5] shares this target. Briefly: competition; 1X PBS, 0.1 mg/mL BSA; direct Kd 93 nM with tRNA, 90 nM without. As to conditions: tags: R&D Systems, carrier free; label: 5'-32P; G4. As for the experimental part: (§2) The fraction aptamer bound vs. [IL-23] was used to calculate the KD by fitting the following equation to the data: Fraction aptamer bound=amplitude*([IL-23]/(KD+[IL-23]))+background binding.
(§3) Several of the minimized constructs from the dRmY Selection 2 were also assayed in a competition format in which cold aptamer was titrated and competed away trace ³²P ATP labeled aptamer In the competition assay, the [IL-23] was held constant, the [trace labeled aptamer] was held constant, and the [unlabeled aptamer] was varied. The KD was calculated by fitting the following equation to the data: Fraction aptamer bound=amplitude*([aptamer]/(KD+[aptamer]))+background binding.

Series [6] has the same target. Briefly: filter; no binding in dot blot, but active in TransAM cell assay (p381). The note with it: tags: R&D Systems, carrier free; label: 5'-32P.
For series [7] the target is unchanged. Briefly: filter; no binding detectable. The note with it: tags: R&D Systems, carrier free; label: 32P.
Series [8] concerns the target IL-12 (human, p35/p40 heterodimer) (Homo sapiens, UniProt P29459;P29460 SEQ:57-253,SEQ:23-328). Briefly: filter; no binding detectable. The note with it: label: 32P.
The target of series [9] is T1, IL-23 (human, p19/p40 heterodimer). Put plainly: filter; no binding; used as negative control. As to conditions: tags: R&D Systems, carrier free; label: 5'-32P.
Text: as §2
Table 25 below summarizes the minimized sequences and the parent clone from which they were derived, and Table 26 summarizes the binding characterization from direct binding assays (+/−tRNA) and competition binding assays for the minimized constructs tested.

Series [10] shares this target. Briefly: filter; 1X PBS, tRNA, ssDNA, BSA, 30 min RT. The note with it: tags: R&D Systems, carrier free; label: 5'-32P. An excerpt: Following the dRmY selection process for aptamers binding to IL-23 (described in Example 1C above) and determination of the oligonucleotide sequences, the sequences were systematically minimized to obtain shorter oligonucleotide sequences that retain the binding characteristics. On the basis of the IL-23 binding analysis described in Example 1A above and the cell based assay data described in Example 3 below, ARC489 (SEQ ID NO 91) (74mer) was chosen for further characterization. 3 minimized constructs based on clone ARC489 (SEQ ID NO 91) were designed and generated. […] Table 23 includes the binding data for the dRmY minimized aptamers.

For series [11] the target is unchanged. Put plainly: competition; 1X PBS, 0.1 mg/mL BSA; direct binding Kd 40 nM with tRNA. As to conditions: tags: R&D Systems, carrier free; label: 5'-32P; G4 (predicted). As for the experimental part:
as §2, §3

In series [12] the target is T2, IL-23 (mouse, p19/p40 heterodimer) (Mus musculus, UniProt Q9EQ14;P43432 SEQ:22-196,SEQ:23-335).
T2 sequence 1: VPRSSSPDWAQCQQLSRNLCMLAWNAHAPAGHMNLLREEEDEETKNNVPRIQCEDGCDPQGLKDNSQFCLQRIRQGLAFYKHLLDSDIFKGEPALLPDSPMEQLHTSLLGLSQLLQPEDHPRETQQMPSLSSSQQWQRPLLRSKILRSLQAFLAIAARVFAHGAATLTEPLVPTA
T2 sequence 2: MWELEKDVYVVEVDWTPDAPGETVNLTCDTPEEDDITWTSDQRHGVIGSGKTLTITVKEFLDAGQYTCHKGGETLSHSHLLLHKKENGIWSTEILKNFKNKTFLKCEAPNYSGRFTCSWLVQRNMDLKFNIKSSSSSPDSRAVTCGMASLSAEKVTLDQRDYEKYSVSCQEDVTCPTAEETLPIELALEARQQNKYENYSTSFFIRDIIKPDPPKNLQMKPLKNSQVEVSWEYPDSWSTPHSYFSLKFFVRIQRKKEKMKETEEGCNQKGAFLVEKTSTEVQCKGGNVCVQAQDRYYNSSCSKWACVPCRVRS
Put plainly: filter; 1X PBS, 0.1 mg/mL BSA, 30 min RT. The note with it: tags: isolated in-house; label: 32P. As for the experimental part:
(§4) rRfY-mIL-23S/mIL-12 neg Protein Binding Analysis. The dot blot binding assays previously described were performed throughout the selection to monitor the protein binding affinity of the pool. Trace ³²P-labeled RNA was combined with mIL-23 or mIL-12 and incubated at room temperature for 30 min in 1×PBS plus 0.1 mg/mL BSA for a final volume of 30 μL. The reaction was added to a dot blot apparatus (Schleicher and Schuell Minifold-1 Dot Blot, Acrylic). Binding curves were generated as described in previous sections. When a significant level of binding of RNA in the presence of mIL-23 was observed, the pool was cloned using the TOPO TA cloning kit (Invitrogen, Carlsbad, Calif.) according to the manufacturer's instructions. The Round 9 pool template was cloned, and 10 individual clones from the selection were assayed in an 8-point dot blot titration against mIL-23. […] Four of the 10 total clones screened bound especially to mIL-23 and mIL-12 at varying affinities.

Series [13] concerns the target T3, IL-12 (mouse, p35/p40 heterodimer) (Mus musculus, UniProt P43431;P43432 SEQ:23-215,SEQ:23-335).
T3 sequence 1: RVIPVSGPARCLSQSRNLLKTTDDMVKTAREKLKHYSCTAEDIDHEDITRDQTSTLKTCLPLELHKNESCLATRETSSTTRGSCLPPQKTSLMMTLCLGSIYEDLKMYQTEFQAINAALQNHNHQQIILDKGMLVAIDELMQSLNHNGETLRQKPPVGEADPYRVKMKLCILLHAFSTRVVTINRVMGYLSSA
T3 sequence 2: T2 sequence 2
Briefly: filter; 1X PBS, 0.1 mg/mL BSA, 30 min RT. As to conditions: label: 32P. As for the experimental part: as §4

The target of series [14] is T2, IL-23 (mouse, p19/p40 heterodimer). Put plainly: filter; 1X PBS, 0.1 mg/mL BSA, 30 min RT; inactive in TransAM cell assay. As to conditions: tags: isolated in-house; label: 32P. An excerpt: Based on visual inspection of the parent clone sequences of the mouse IL-23 rRfY aptamers described in Example 1E, and predicted RNA structures using an RNA folding program (RNAstructure), minimized constructs were designed for each of the seven binding mIL-23 clones. PCR templates for the minimized construct oligos were ordered from Integrated DNA Technologies (Coraville, Iowa). Constructs were PCR amplified, transcribed, gel purified, and tested for binding to mIL-23 using the dot blot binding assay previously described. Trace ³²P-labeled RNA was combined with mIL-23 and incubated at room temperature for 30 min in 1×PBS plus 0.1 mg/mL BSA for a final volume of 30 μL. The reaction was added to a dot blot apparatus (Schleicher and Schuell Minifold-1 Dot Blot, Acrylic). Binding curves were generated as described in previous sections. Table 33 summarizes the protein binding characterization for each rRfY minimized construct that had significant binding to mIL-23.

T1 sequence (Q9NPF7 20-189, chain 1 of 2): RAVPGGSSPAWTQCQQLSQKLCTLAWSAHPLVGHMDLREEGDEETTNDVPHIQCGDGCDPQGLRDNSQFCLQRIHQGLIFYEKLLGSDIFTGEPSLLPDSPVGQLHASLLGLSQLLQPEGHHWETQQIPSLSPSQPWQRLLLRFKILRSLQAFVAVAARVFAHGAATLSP
T1 sequence (P29460 23-328, chain 2 of 2): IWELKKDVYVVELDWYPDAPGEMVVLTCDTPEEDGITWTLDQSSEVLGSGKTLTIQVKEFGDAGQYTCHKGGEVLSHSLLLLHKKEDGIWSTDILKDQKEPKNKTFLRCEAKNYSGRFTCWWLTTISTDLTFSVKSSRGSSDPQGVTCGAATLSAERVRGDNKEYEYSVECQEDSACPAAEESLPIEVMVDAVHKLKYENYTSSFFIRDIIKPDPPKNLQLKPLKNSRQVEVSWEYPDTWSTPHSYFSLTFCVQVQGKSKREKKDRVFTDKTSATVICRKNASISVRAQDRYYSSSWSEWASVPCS
Chain of IL-12 (human, p35/p40 heterodimer) (P29459 23-219, chain 1 of 2): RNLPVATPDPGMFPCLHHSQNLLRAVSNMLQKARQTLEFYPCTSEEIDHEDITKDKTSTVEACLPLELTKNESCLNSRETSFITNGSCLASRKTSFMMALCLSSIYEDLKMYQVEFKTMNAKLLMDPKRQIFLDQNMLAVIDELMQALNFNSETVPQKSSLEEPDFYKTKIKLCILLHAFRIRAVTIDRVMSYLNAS
Chain of IL-12 (human, p35/p40 heterodimer) (P29460 23-328, chain 2 of 2): as the sequence (P29460 23-328, chain 2 of 2) above

B1: ARC1154 (mixed)
RNA: ACAGGCAAGUAAUUGGGGAGUGCGGGCGGGGUGU
modifications: dRmY; PS between nt 9 and 10
In series [1], B1 returned a Kd of 412 nM.

B2: ARC1160 (mixed)
RNA: B1 RNA
modifications: dRmY; PS between nt 18 and 19 [N = PS linkage, not a base; PS between nt 18 and 19; 2'-deoxy all A/G; 2'-OMe all C/U (2,6,10,13,14,21,23,27,32,34)]
In turn, B2 came in with a Kd in [2] of 38 nM.

B3: ARC1988 (mixed)
RNA: B1 RNA
modifications: ARC1623 with 5'-amine-linked 40 kDa PEG; 2'-deoxy, 2'-OMe, PS, 3'-idT
The molecule B3 yielded an equilibrium dissociation constant (Kd) in [3] of approximately 2 nM.

B4: ARC1162 (mixed)
RNA: B1 RNA
modifications: deoxy A,G; 2'-OMe C,U; PS 20-21 [PS between 20-21; 2'-OMe C,U at 2,6,10,13,14,21,23,27,32,34; deoxy A,G at all other positions]
B4 registered a Kd in series [4] of 47 nM.

B5: ARC979 (mixed)
RNA: B1 RNA
modifications: 2'-deoxy A and G, 2'-OMe C and U (dRmY)
In the case of B5, binding in series [5] was characterised by a dissociation constant (Kd) of 9 nM.

B6: ARC982 (mixed)
RNA: GGCGGUUACGGGGGAUGCGGGUGGGACAGG
modifications: 2'-deoxy A and G, 2'-OMe C and U (dRmY)
Consider B6, for which the binding result in series [6] was “no binding”.

B7: ARC492 (mixed)
RNA: GGGAGAGGAGAGAACGUUCUACUCAAUGACCGCGCGAGGCUCUGGGAGAGGGCGCUGUCGAUCGAUCGAUCGAUG
modifications: 2'-deoxy A and G, 2'-OMe C and U (dRmY)
Regarding B7, the binding result in series [7] and in series [8] was “no binding” each time.

B8: ARC895 (mixed)
RNA: GGCAAGGUAAUUGGGUAGUGAGGGCUGGG
modifications: 2'-deoxy A and G, 2'-OMe C and U (dRmY)
With B8, the binding result in [9] is “no binding”.

B9: ARC527 (mixed)
RNA: ACAGCGCCGGUGGGCGGGCAUUGGGUGGAUGCGCUGU
modifications: 2'-deoxy A and G, 2'-OMe C and U (dRmY)
B9 came in with a Kd in [10] of 12.6 nM.

B10: ARC795 (mixed)
RNA: CGAUAUAGGCGGUACGGGGGGAGUGGGCUGGGGUCG
modifications: 2'-deoxy A and G, 2'-OMe C and U (dRmY)
Turning to B10, in series [11], the Kd is 4 nM.

B11: AMX369.H1 (ARC1914) (ssRNA)
RNA: GGAGCGCACUCAGCCACCUGGGAAAAUCUGGGUCCCUGAGUUCUAACAGCAGAGAUUUUUCGACCUCUCUGCUAGC
modifications: 2'-F all C and U (rRfY)
Take B11: the Kd worked out at 23 nM in series [12] and 194 nM in series [13].

B12: ARC1918 (ARC1632 minimer) (ssRNA)
RNA: GGAGCGCACUCAGCCACCGGCUUAAUAUCCAAUAGGAACGUUCGCUCU
modifications: 2'-F all C and U (rRfY)
As for B12, in [14], the Kd was 1 nM.

For orientation: Kd means the constant that tells how readily two partners part at equilibrium.
